From the supplement of paper PMC5998384 come the findings set out here.

The test system of data set [1] is HeLa Kyoto. Put plainly: solubility in G1/S (NP-40 vs SDS abundance) (log2 ratio); higher = more soluble. The settings on record: cell cycle stage: G1/S.
The test system of data set [2] is HeLa Kyoto. The data set can be described thus: thermal stability score vs G1/S (z-score of summed log2 fold changes over temperatures); higher = more thermally stable than in G1/S.
The test system of data set [3] is HeLa Kyoto. Put plainly: melting temperature (median over replicates), in situ; higher = more thermally stable.
Data set [4] has as its system HeLa Kyoto. The data set can be described thus: solubility change mitosis vs G1/S (difference of NP-40 vs SDS log2 ratios) (log2 ratio difference); higher = more soluble in mitosis.
[5] abbreviates: cell cycle stage: early G1 (4.5 h after nocodazole release).
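Wherever melting temperature (median over replicates), in situ is given: HeLa Kyoto cells synchronized by double thymidine or nocodazole block, proteins quantified by TMT10plex mass spectrometry, three independent biological replicates.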
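Wherever solubility change mitosis vs G1/S (difference of NP-40 vs SDS log2 ratios) is given: synchronized HeLa Kyoto cells (double thymidine block for G1/S, nocodazole release for mitosis), protein amounts in NP-40 versus SDS lysates quantified by mass spectrometry, three biological replicates.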
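Wherever solubility in G1/S (NP-40 vs SDS abundance) is given: HeLa Kyoto cells arrested at G1/S by double thymidine block, proteins quantified by TMT10plex mass spectrometry in mild NP-40 versus SDS extracts, three biological replicates.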
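Wherever thermal stability score vs G1/S (z-score of summed log2 fold changes over temperatures) is given: synchronized HeLa Kyoto cells, proteins quantified by TMT10plex mass spectrometry, three biological replicates, mitosis taken 0.5 h after nocodazole release, G1/S directly after double thymidine block.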

“MAAVDLEKLRASGAGKAIGVLTSGGDAQGMNAAVRAVTRMGIYVGAKVFLIYEGYEGLVEGGENIKQANWLSVSNIIQLGGTIIGSARCKAFTTREGRRAAAYNLVQHGITNLCVIGGDGSLTGANIFRSEWGSLLEELVAEGKISETTARTYSHLNIAGLVGSIDNDFCGTDMTIGTDSALHRIMEVIDAITTTAQSHQRTFVLEVMGRHCGYLALVSALASGADWLFIPEAPPEDGWENFMCERLGETRSRGSRLNIIIIAEGAIDRNGKPISSSYVKDLVVQRLGFDTRVTVLGHVQRGGTPSAFDRILSSKMGMEAVMALLEATPDTPACVVTLSGNQSVRLPLMECVQMTKEVQKAMDDKRFDEATQLRGGSFENNWNIYKLLAHQKPPKEKSNFSLAILNVGAPAAGMNAAVRSAVRTGISHGHTVYVVHDGFEGLAKGQVQEVGWHDVAGWLGRGGSMLGTKRTLPKGQLESIVENIRIYGIHALLVVGGFEAYEGVLQLVEARGRYEELCIVMCVIPATISNNVPGTDFSLGSDTAVNAAMESCDRIKQSASGTKRRVFIVETMGGYCGYLATVTGIAVGADAAYVFEDPFNIHDLKVNVEHMTEKMKTDIQRGLVLRNEKCHDYYTTEFLYNLYSSEGKGVFDCRTNVLGHLQQGGAPTPFDRNYGTKLGVKAMLWLSEKLREVYRKGRVFANAPDSACVIGLKKKAVAFSPVTELKKDTDFEHRMPREQWWLSLRLMLKMLAQYRISMAAYVSGELEHVTRRTLSMDKGF [PFKL]”: the “solubility in G1/S (log2)” value in the data set with HeLa Kyoto [1] was -0.0607. The thermal stability score with HeLa Kyoto [2] (setting [5]) was -1.97; in the data set with HeLa Kyoto [2] (cell cycle stage: mitosis) it was -2.04. The melting temperature was found to be 58.6 °C in the data set on HeLa Kyoto [3] (cell cycle stage: G1/S) and 58.1 °C with HeLa Kyoto [3] (cell cycle stage: mitosis). Besides, the “solubility change mitosis (log2)” value with HeLa Kyoto [4] is -0.179.

For “MAAVLKPVLLGLRDAPVHGSPTGPGAWTASKLGGIPDALPTVAAPRPVCQRCGQPLALVVQVYCPLEGSPFHRLLHVFACACPGCSTGGARSWKVFRSQCLQVPEREAQDAQKQGNSLAAEDWCEGADDWGSDTEEGPSPQFTLDFGNDASSAKDVDWTARLQDLRLQDAVLGAAHPVPPGLPLFLPYYICVADEDDYRDFVNLDHAHSLLRDYQQREGIAMDQLLSQSLPNDGDEKYEKTIIKSGDQTFYKFMKRIAACQEQILRYSWSGEPLFLTCPTSEVTELPACSQCGGQRIFEFQLMPALVSMLKSANLGLSVEFGTILVYTCEKSCWPPNHQTPMEEFCIIQEDPDELLFK [PDCD2L]”, the “solubility in G1/S (log2)” value in the data set on HeLa Kyoto [1] was 0.287. Further, the values for the thermal stability score in the data set on HeLa Kyoto [2] (setting [5]) and in the data set with HeLa Kyoto [2] (cell cycle stage: mitosis) were 0.0844 and 0.849, respectively. Moreover, the melting temperature is 48.9 °C with HeLa Kyoto [3] (cell cycle stage: G1/S) and 49.8 °C with HeLa Kyoto [3] (cell cycle stage: mitosis). Also, the “solubility change mitosis (log2)” value with HeLa Kyoto [4] came to 0.0741.

Regarding “MAAVQVVGSWPSVQPREAPREAIPERGNGFRLLSARLCALRPDDSSSARTEIHLLFDQLISENYSEGSGVAPEDVSALLVQACRLVPLNQNHLVSKVSQLIHHLLNRLQVIVDEQHLDFLLAYTISAIHQCSSWTHREILQALAALVYCNGSKCQKYLPELLGNTGLLMKLSDLAQSDPEVRRAAVHCMANLCLSVPGQPYLEEPYQNVCFQAFLTILQSPKSSDMDDITFCMLLQNALKGIQSLLNGGRMKLTQTDELGALLAVLKKFMFHGLPGLNIEMPTVLYPTPLPQYDGRTPIKPQQSESSASRPTLNKKKKSKVKPKKIQQGEEEEKESSGEIEAAPVTGTGRVNLHEGNTWCPSSLGVQSLPLDGSGAAEKDGVSSSFSSSSWKRVSSSESDFSDAEGGMQSKMRSYQAKVRQGALVCFLSTIKSIEKKVLYGYWSAFIPDTPELGSPQSVSLMTLTLKDPSPKTRACALQVLSAILEGSKQFLSVAEDTSDHRRAFTPFSVMIACSIRELHRCLLLALVAESSSQTVTQIIKCLANLVSNAPYDRLKLSLLTKVWNQIKPYIRHKDVNVRVSSLTLLGAIVSTHAPLPEVQLLLQQPCSSGLGNSNSATPHLSPPDWWKKAPAGPSLEETSVSSPKGSSEPCWLIRLCISIVVLPKEDSCSGSDAGSAAGSTYEPSPMRLEALQVLTLLARGYFSMTQAYLMELGEVICKCMGEADPSIQLHGAKLLEELGTGLIQQYKPDSTAAPDQRAPVFLVVMFWTMMLNGPLPRALQNSEHPTLQASACDALSSILPEAFSNLPNDRQMLCITVLLGLNDSKNRLVKAATSRALGVYVLFPCLRQDVIFVADAANAILMSLEDKSLNVRAKAAWSLGNLTDTLIVNMETPDPSFQEEFSGLLLLKMLRSAIEASKDKDKVKSNAVRALGNLLHFLQPSHIEKPTFAEIIEESIQALISTVLTEAAMKVRWNACYAMGNVFKNPALPLGTAPWTSQAYNALTSVVTSCKNFKVRIRSAAALSVPGKREQYGSVDQYARIWNALVTALQKSEDTIDFLEFKYCVSLRTQICQALIHLLSLASASDLPCMKETLELSGNMVQSYILQFLKSGAEGDDTGAPHSPQERDQMVRMALKHMGSIQAPTGDTARRAIMGFLEEILAVCFDSSGSQGALPGLTNQ [HEATR6]”, the “solubility in G1/S (log2)” value in the data set on HeLa Kyoto [1] is 0.0502. The values for the thermal stability score in the data set on HeLa Kyoto [2] (setting [5]) and in the data set with HeLa Kyoto [2] (cell cycle stage: mitosis) were -0.697 and 0.141, respectively. The melting temperature with HeLa Kyoto [3] (cell cycle stage: G1/S) came to 50.5 °C; with HeLa Kyoto [3] (cell cycle stage: mitosis) it was 50.1 °C. In the data set with HeLa Kyoto [4], the “solubility change mitosis (log2)” value was -0.216.
